# Reference: patent US20230101835A1
# Target: plasma derived C3b (UniProt P01024)
# Assay: cell-based or functional assay
# Sequence of UniProt P01024 (P01024 749-1663 limits assumed, chain 1 of 2): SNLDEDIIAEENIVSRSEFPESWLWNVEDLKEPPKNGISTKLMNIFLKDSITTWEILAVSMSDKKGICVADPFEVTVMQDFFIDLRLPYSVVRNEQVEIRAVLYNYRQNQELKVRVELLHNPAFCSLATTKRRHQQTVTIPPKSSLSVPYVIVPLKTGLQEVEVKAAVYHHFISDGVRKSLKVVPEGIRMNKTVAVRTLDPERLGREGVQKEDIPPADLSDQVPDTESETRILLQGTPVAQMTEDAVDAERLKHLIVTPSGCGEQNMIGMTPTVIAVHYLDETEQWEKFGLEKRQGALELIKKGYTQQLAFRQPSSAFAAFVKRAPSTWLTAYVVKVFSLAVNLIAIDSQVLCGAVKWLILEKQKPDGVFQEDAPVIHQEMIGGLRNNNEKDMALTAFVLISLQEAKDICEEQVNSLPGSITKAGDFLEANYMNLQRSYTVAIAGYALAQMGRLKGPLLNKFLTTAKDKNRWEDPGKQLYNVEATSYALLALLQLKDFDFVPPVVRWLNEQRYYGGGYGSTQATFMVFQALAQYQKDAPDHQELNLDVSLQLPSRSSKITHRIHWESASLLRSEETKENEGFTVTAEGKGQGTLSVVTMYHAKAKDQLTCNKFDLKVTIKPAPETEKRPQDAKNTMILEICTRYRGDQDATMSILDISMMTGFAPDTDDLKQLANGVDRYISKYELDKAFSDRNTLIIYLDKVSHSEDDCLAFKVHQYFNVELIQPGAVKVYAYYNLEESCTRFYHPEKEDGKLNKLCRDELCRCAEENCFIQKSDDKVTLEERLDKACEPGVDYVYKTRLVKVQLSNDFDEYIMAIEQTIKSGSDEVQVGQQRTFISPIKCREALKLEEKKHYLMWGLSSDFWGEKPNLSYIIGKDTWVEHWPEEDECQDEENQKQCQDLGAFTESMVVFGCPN
# Sequence of UniProt P01024 (P01024 23-667 limits assumed, chain 2 of 2): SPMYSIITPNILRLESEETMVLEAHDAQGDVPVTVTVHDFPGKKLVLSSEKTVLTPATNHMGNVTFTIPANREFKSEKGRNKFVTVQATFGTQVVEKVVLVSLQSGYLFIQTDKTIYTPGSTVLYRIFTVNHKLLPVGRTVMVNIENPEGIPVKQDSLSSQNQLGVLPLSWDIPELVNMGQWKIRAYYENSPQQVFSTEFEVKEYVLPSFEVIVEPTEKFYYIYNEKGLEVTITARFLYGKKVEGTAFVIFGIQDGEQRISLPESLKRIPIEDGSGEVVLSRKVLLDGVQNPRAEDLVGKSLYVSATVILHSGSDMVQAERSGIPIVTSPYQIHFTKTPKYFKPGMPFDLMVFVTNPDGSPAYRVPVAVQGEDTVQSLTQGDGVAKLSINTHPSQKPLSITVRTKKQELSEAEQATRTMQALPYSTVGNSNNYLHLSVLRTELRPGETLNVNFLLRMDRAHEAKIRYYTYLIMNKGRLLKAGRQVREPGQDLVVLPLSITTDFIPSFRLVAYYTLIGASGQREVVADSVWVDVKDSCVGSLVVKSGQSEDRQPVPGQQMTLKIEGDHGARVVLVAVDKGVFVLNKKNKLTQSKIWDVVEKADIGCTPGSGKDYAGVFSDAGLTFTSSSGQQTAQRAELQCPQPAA
substance,measurement,value
FH^1-5∧18-20 (from UniProt P08603 19-322; P08603 1046-1231),"fluid phase Factor I cofactor activity: concentration of regulator at which the C3α′ band disappears (complete degradation of C3b), SDS-PAGE",200 nM
